This note sets out measurements from US20250122288A1 (ARGENX, published 2025).

Test [1] concerns the target T1, neonatal Fc receptor (FcRn) (human, UniProt P55899 24-365; P61769 21-119).
T1 construct: whole, on cells; also called human FcRn
Briefly: in vitro FcRn occupancy assay.

Test [2] concerns the target T1, neonatal Fc receptor (FcRn). Briefly: FcRn occupancy assay, 'previous studies'.
The target is the same in test [3]. In words: in vitro FcRn occupancy assay; reference implied to be two-armed TA-HEL-ABDEG.

Where only a bound is given, the exact number is not on record here.

T1 sequence (P55899 24-365 limits assumed, form in doubt, chain 1 of 2): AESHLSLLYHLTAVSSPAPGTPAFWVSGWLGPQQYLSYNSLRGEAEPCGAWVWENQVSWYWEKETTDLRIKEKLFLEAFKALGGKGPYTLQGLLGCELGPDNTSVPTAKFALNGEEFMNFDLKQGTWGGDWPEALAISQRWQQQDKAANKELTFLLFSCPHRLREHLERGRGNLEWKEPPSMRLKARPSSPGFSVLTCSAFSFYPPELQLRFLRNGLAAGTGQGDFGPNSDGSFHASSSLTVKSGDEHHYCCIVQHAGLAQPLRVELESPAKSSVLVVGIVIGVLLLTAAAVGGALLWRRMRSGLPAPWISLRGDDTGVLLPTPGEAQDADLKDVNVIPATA
T1 sequence (P61769 21-119 limits assumed, form in doubt, chain 2 of 2): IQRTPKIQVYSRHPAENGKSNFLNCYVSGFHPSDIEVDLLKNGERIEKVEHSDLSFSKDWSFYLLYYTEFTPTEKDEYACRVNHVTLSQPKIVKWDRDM

B1: efgartigimod (other)
chain: DKTHTCPPCPAPELLGGPSVFLFPPKPKDTLYITREPEVTCVVVDVSHEDPEVKFNWYVDGVEVHNAKTKPREEQYNSTYRVVSVLTVLHQDWLNGKEYKCKVSNKALPAPIEKTISKAKGQPREPQVYTLPPSRDELTKNQVSLTCLVKGFYPSDIAVEWESNGQPENNYKTTPPVLDSDGSFFLYSKLTVDKSRWQQGNVFSCSVMHEALKFHYTQKSLSLSPGK
Turning to B1, in test [1], the IC50 (as a rule, the concentration that gives 50% inhibition) was found to be 6 nM. That is a single-digit nanomolar value.

B2: mAb37-ABDEG (parental) (antibody)
chain 1: QVQLVQSGAEVMKPGSSVKVSCKASGYTFSWYHLEWVRQAPGHGLEWMGEIDPGTFTTNYNEKFKARVTFTADTSTSTAYMELSSLRSEDTAVYYCARFSHFSGSNHDYFDYWGQGTLVTVSSASTKGPSVFPLAPSSKSTSGGTAALGCLVKDYFPEPVTVSWNSGALTSGVHTFPAVLQSSGLYSLSSVVTVPSSSLGTQTYICNVNHKPSNTKVDKKVEPKSCDKTHTCPPCPAPELLGGPSVFLFPPKPKDTLYITREPEVTCVVVDVSHEDPEVKFNWYVDGVEVHNAKTKPREEQYNSTYRVVSVLTVLHQDWLNGKEYKCKVSNKALPAPIEKTISKAKGQPREPQVYTLPPSRDELTKNQVSLTCLVKGFYPSDIAVEWESNGQPENNYKTTPPVLDSDGSFFLYSKLTVDKSRWQQGNVFSCSVMHEALKFHYTQKSLSLSPG
chain 2: EIVMTQSPATLSVSPGERATLSCRASQSIGTNIHWYQQKPGQAPRLLIYYASESISGIPARFSGSGSGTEFTLTISSLQSEDFAVYYCQQSWSWPTTFGGGTKVEIKRTVAAPSVFIFPPSDEQLKSGTASVVCLLNNFYPREAKVQWKVDNALQSGNSQESVTEQDSKDSTYSLSSTLTLSKADYEKHKVYACEVTHQGLSSPVTKSFNRGEC
For B2, in test [2], the IC50 is over 100 nM.

B3: bivalent (TA) HEL-ABDEG (antibody, human IgG1, kappa)
heavy: QVQLQESGPGLVRPSQTLSLTCTVSGFSLTGYGVNWVRQPPGRGLEWIGMIWGDGNTDYNSALKSRVTMLKDTSKNQFSLRLSSVTAADTAVYYCARERDYRLDYWGQGSLVTVSSASTKGPSVFPLAPSSKSTSGGTAALGCLVKDYFPEPVTVSWNSGALTSGVHTFPAVLQSSGLYSLSSVVTVPSSSLGTQTYICNVNHKPSNTKVDKKVEPKSCDKTHTCPPCPAPELLGGPSVFLFPPKPKDTLYITREPEVTCVVVDVSHEDPEVKFNWYVDGVEVHNAKTKPREEQYNSTYRVVSVLTVLHQDWLNGKEYKCKVSNKALPAPIEKTISKAKGQPREPQVYTLPPSRDELTKNQVSLTCLVKGFYPSDIAVEWESNGQPENNYKTTPPVLDSDGSFFLYSKLTVDKSRWQQGNVFSCSVMHEALKFHYTQKSLSLSPGK
light: DIQMTQSPSSLSASVGDRVTITCRASGNIHNYLAWYQQKPGKAPKLLIYYTTTLADGVPSRFSGSGSGTDYTFTISSLQPEDIATYYCQHFWSTPRTFGQGTKVEIKRTVAAPSVFIFPPSDEQLKSGTASVVCLLNNFYPREAKVQWKVDNALQSGNSQESVTEQDSKDSTYSLSSTLTLSKADYEKHKVYACEVTHQGLSSPVTKSFNRGEC
notes: Two-armed anti-hen egg lysozyme antibody with an Fc-ABDEG region; Copies of 2 follow from 'bivalent (TA)'
Regarding B3, the IC50 in test [1] stood at 14 nM.

B4: one-armed (OA) HEL-ABDEG (antibody, human IgG1, kappa)
heavy: QVQLQESGPGLVRPSQTLSLTCTVSGFSLTGYGVNWVRQPPGRGLEWIGMIWGDGNTDYNSALKSRVTMLKDTSKNQFSLRLSSVTAADTAVYYCARERDYRLDYWGQGSLVTVSSASTKGPSVFPLAPSSKSTSGGTAALGCLVKDYFPEPVTVSWNSGALTSGVHTFPAVLQSSGLYSLSSVVTVPSSSLGTQTYICNVNHKPSNTKVDKKVEPKSCDKTHTCPPCPAPELLGGPSVFLFPPKPKDTLYITREPEVTCVVVDVSHEDPEVKFNWYVDGVEVHNAKTKPREEQYNSTYRVVSVLTVLHQDWLNGKEYKCKVSNKALPAPIEKTISKAKGQPREPQVYTLPPSRDELTKNQVSLWCLVKGFYPSDIAVEWESNGQPENNYKTTPPVLDSDGSFFLYSKLTVDKSRWQQGNVFSCSVMHEALKFHYTQKSLSLSPG
chain: DKTHTCPPCPAPELLGGPSVFLFPPKPKDTLYITREPEVTCVVVDVSHEDPEVKFNWYVDGVEVHNAKTKPREEQYNSTYRVVSVLTVLHQDWLNGKEYKCKVSNKALPAPIEKTISKAKGQPREPQVYTLPPSRDELTKNQVSLSCAVKGFYPSDIAVEWESNGQPENNYKTTPPVLDSDGSFFLVSKLTVDKSRWQQGNVFSCSVMHEALKFHYTQKSLSLSPG
light: B3 light
notes: One anti-HEL Fab joined by a natural IgG1 hinge to the N-terminus of Fc-ABDEG; The Fc is a knob-into-hole heterodimer
Turning to B4, the IC50 in test [1] is 7 nM. The “fold improvement in FcRn occupancy” value in test [3] is 2 fold.
